Columns and labels:
[1] = target: T1, rHuman Erythropoietin R/Fc Chimera, CF (R&D Systems Cat#963-ER) (human, UniProt P19235 25-250); test: Multispot ECL (MSD) titration; antigen spotted on plate; Fab 1570 nM; blank spot 866
T1 construct: Bought Fc chimera; also called EPO R/Fc; EPO R; Fc part of the bought chimera not given
T1 sequence (looked up): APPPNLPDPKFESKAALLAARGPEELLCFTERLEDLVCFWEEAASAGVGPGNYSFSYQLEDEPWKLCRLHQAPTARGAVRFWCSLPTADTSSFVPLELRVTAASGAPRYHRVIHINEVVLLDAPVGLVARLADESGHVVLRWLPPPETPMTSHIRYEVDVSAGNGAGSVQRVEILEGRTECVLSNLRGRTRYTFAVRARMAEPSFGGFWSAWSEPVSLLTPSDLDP

[2] = target: T2, Recombinant Human DLL4 (R&D Systems Cat#1506-D4/CF) (human, UniProt Q9NR61 27-524); test: as above
T2 construct: Bought recombinant protein; also called delta-like protein 4; rHuman DLL4

[3] = target: T3, rHuman ErbB2/Fc Chimera, CF (R&D Systems Cat#1129-ER) (human, UniProt P04626 23-652); test: as above
T3 construct: Bought Fc chimera; also called human epidermal growth factor 2 receptor; Fc part of the bought chimera not given

[4] = target: T4, rHuman Notch-1/Fc Chimera, CF (R&D Systems Cat#3647-TK) (human, UniProt P46531 19-526); test: as above
T4 construct: Bought Fc chimera; Fc part of the bought chimera not given

[5] = target: T5, rHuman CD44/Fc Chimera, CF (R&D Systems Cat#3660-CD) (human, UniProt P16070 21-220); test: as above
T5 construct: Bought Fc chimera; Fc part of the bought chimera not given

[6] = target: T6, rHuman P-Cadherin/Fc Chimera, CF (R&D Systems Cat#861-PC) (human, UniProt P22223 108-654); test: as above
T6 construct: Bought Fc chimera; Fc part of the bought chimera not given

[7] = target: T7, rHuman IGF-1 sR, CF (R&D Systems Cat#391-GR) (human, UniProt P08069 31-932); test: ECL Multispot (MSD) assay, antigen spotted on plate, 10 nM Fab; blank spot of this row 472
T7 construct: Bought soluble receptor; The column head prints only 'IGF-1'; also called insulin-like growth factor-1 soluble receptor

[8] = target: T8, rHuman P-Cadherin/Fc Chimera, CF (R&D Systems Cat#861-PC) (human, UniProt P22223 108-654); test: as above
T8 construct: Bought reagent; Fc part of the bought chimera not given

[9] = target: T9, rHuman Erythropoietin R/Fc Chimera, CF (R&D Systems Cat#963-ER) (human, UniProt P19235 25-250); test: as above
T9 construct: Bought reagent; also called EPO R; EPO R/Fc; Fc part of the bought chimera not given
T9 sequence (looked up): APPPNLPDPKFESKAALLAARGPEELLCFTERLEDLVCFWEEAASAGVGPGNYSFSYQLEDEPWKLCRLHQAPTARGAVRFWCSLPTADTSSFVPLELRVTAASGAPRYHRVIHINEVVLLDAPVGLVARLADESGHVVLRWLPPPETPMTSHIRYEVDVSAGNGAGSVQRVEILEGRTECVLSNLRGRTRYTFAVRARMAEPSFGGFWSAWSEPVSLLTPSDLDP

[10] = target: T10, rHuman ErbB2/Fc Chimera, CF (R&D Systems Cat#1129-ER) (human, UniProt P04626 23-652); test: as above
T10 construct: Bought reagent; also called human epidermal growth factor 2 receptor; Fc part of the bought chimera not given

[11] = target: T11, rHuman HGF R/c-MET/Fc Chimera, CF (R&D Systems Cat#358-MT/CF) (human, UniProt P08581 25-932); test: as above
T11 construct: Bought reagent; also called HGF R/Fc; hepatocyte growth factor receptor; Fc part of the bought chimera not given

[12] = target: T12, rHuman Notch-1/Fc Chimera, CF (R&D Systems Cat#3647-TK) (human, UniProt P46531 19-526); test: as above
T12 construct: Bought reagent; Fc part of the bought chimera not given

[13] = target: T1, rHuman Erythropoietin R/Fc Chimera, CF …; test: Multispot ECL (MSD) titration; antigen spotted on plate; Fab 930 nM; blank spot 1206
[14] = target: T2, Recombinant Human DLL4 (R&D Systems …); test: as above
[15] = target: T3, rHuman ErbB2/Fc Chimera, CF (R&D …); test: as above
[16] = target: T4, rHuman Notch-1/Fc Chimera, CF (R&D …); test: as above
[17] = target: T5, rHuman CD44/Fc Chimera, CF (R&D Systems …); test: as above
[18] = target: T13, rHuman IGF-1 sR (IGF-1 sR), CF (R&D Systems Cat#391-GR) (human, UniProt P08069 31-932); test: as above
T13 construct: Bought soluble receptor; also called insulin-like growth factor-1 soluble receptor

[19] = target: T6, rHuman P-Cadherin/Fc Chimera, CF (R&D …); test: as above

T11 sequence (P08581 25-932, change not shown): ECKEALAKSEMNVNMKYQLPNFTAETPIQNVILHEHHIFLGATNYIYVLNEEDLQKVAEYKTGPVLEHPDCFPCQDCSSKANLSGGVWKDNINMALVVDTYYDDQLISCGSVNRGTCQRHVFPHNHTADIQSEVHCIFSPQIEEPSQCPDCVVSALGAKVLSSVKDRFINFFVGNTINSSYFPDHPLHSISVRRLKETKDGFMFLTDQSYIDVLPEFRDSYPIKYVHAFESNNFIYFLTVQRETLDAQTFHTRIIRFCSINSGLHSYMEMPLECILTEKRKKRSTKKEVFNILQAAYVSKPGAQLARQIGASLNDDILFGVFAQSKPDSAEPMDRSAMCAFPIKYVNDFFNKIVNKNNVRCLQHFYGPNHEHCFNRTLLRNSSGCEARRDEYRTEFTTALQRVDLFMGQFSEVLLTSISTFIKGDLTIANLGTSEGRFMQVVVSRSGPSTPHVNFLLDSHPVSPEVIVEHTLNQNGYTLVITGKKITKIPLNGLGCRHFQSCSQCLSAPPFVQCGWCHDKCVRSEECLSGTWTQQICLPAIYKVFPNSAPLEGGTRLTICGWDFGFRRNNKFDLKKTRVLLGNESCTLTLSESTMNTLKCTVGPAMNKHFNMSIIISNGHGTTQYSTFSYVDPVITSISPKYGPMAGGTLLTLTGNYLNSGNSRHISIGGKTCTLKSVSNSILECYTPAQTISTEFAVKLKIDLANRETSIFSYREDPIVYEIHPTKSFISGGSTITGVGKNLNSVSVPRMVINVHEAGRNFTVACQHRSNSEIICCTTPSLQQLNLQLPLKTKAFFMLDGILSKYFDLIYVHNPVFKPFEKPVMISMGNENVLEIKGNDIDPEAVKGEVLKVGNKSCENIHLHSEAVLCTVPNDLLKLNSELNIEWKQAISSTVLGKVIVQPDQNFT

B1: Fab VH1-46_IGHD3-10*01_IGHJ4*01 & O1_IGKJ1*01 (Fab, V domains shown)
VH: QVQLVQSGAEVKKPGASVKVSCKASGYTFTSYYMHWVRQAPGQGLEWMGIINPSGGSTSYAQKFQGRVTMTRDTSTSTVYMELSSLRSEDTAVYYCAREYYYGSGSYYNDYFDYWGQGTLVTVSS
VL: DIVMTQTPLSLPVTPGEPASISCRSSQSLLDSDDGNTYLDWYLQKPGQSPQLLIYTLSYRASGVPDRFSGSGSGTDFTLKISRVEAEDVGVYYCMQRIEFPSWTFGQGTKVEIKR
notes: Germline library Fab expressed in E. coli; VH was cloned into Plasmid A (CH1 constant region, His6 and Flag tags); The kappa VL was cloned into Plasmid C (kappa CL)
With B1 the ECL signal [1] was 6120, the ECL signal [2] was 2700 and the ECL signal [3] was 1260. It also gave an ECL signal [4] of 1640, an ECL signal [5] of 1380 and an ECL signal [6] of 1790.

B2: Fab VH1-46_IGHD6-6*01_IGHJ1*01 S102A/S103P/S104F (APF) & L6_IGKJ1*01 (Fab, V domains shown)
VH: QVQLVQSGAEVKKPGASVKVSCKASGYTFTSYYMHWVRQAPGQGLEWMGIINPSGGSTSYAQKFQGRVTMTRDTSTSTVYMELSSLRSEDTAVYYCAREEYAPFSAEYFQHWGQGTLVTVSS
VL: not shown
notes: Tested as a Fab made in E. coli; also called H:APF & L:wt; APF triple mutant
Binder B2 has an ECL signal [7] of 434, an ECL signal [8] of 433 and an ECL signal [9] of 480. For the same binder, the ECL signal [10] was 391, the ECL signal [11] was 426 and the ECL signal [12] was 299.

B3: Fab VH1-46_IGHD6-13*01_IGHJ4*01 & O1_IGKJ1*01 (Fab, V domains shown)
VH: QVQLVQSGAEVKKPGASVKVSCKASGYTFTSYYMHWVRQAPGQGLEWMGIINPSGGSTSYAQKFQGRVTMTRDTSTSTVYMELSSLRSEDTAVYYCAREGYSSSWYDYFDYWGQGTLVTVSS
VL: DIVMTQTPLSLPVTPGEPASISCRSSQSLLDSDDGNTYLDWYLQKPGQSPQLLIYTLSYRASGVPDRFSGSGSGTDFTLKISRVEAEDVGVYYCMQRIEFPSWTFGQGTKVEIKR
notes: as for B1
B3 showed an ECL signal [13] of 3010, an ECL signal [14] of 8160 and an ECL signal [15] of 2220. The ECL signal [16] was 2210, the ECL signal [17] was 1920 and the ECL signal [18] was 1920. For the same binder, the ECL signal [19] was 2440.
